Reference: US7250195B1, “Molecular plasma deposition of colloidal materials” (Ionic Fusion Corporation, priority 2006, dated 2007)
In brackets after ≈: the same amount, converted by molar mass.

Key:
[1] = cited from earlier work
[2] = catalysis of 5% hydrogen peroxide solution by plasma-deposited catalase coating; assay type: biochemical, bovine; settings: for catalytic activity after molecular plasma deposition: deposited 10 min on aluminum oxide disk, placed in 5% hydrogen peroxide
Excerpt: Using the apparatus illustrated in FIG. 2, the high voltage power supply was attached to a 304 stainless steel, 18 gauge needle set at −5000V. The substrate was an aluminum oxide disk ¼″ thick by 1.5″ in diameter, having an area of approximately 11 sq cm and set at a potential of 5000 V. The substrate was centered and placed 5 cm from the hole in the chamber. The chamber was pumped to 40 mTorr and the flow of the colloidal suspension initiated. The deposition onto the substrate was allowed to proceed for 10 minutes. At the end of the deposition process, the substrate was removed from the chamber and the sample was placed in a 5% solution of hydrogen peroxide.
The deposition was repeated twice under the same conditions, except that after the substrate was removed from the chamber, the samples were placed in an ultrasonic water bath for 10 min. Additionally, one of the samples was maintained at 10° C. for 72 hr after removal from the bath.

[3] = activity of the catalase colloidal suspension before deposition; assay type: biochemical, bovine; settings: colloidal suspension in water with 0.1% thymol, protein 33 mg/ml
Protocol: 25 ml of a 2× crystallized bovine liver catalase (Sigma C100-58MG; 056K7010) colloidal suspension in water with 0.1% thymol was prepared. Protein concentration was 33 mg/ml with an activity of 4.1×10^4 U/ml.

For `Nc1nc2nc[nH]c2c(=O)[nH]1` [guanine], which water solubility [1] is on record?
Its water solubility is “insoluble”.

For `Nc1ncnc2nc[nH]c12` [adenine], which water solubility [1] is on record?
The water solubility was 500 µg/mL (≈ 3.7 mM).

For `NCCCC[C@H](N)C(=O)O` [Lysine], which “water solubility (in words)” value [1] is on record?
Its value is “highly water soluble”.

For `Nc1cc[nH]c(=O)n1` [cytosine], which water solubility [1] is on record?
Its water solubility is “insoluble”.

B1: catalase: 2× crystallized bovine liver catalase (Sigma C100-58MG; 056K7010), a polypeptide enzyme (protein, UniProt P00432 2-527, looked up)
Catalase: ADNRDPASDQMKHWKEQRAAQKPDVLTTGGGNPVGDKLNSLTVGPRGPLLVQDVVFTDEMAHFDRERIPERVVHAKGAGAFGYFEVTHDITRYSKAKVFEHIGKRTPIAVRFSTVAGESGSADTVRDPRGFAVKFYTEDGNWDLVGNNTPIFFIRDALLFPSFIHSQKRNPQTHLKDPDMVWDFWSLRPESLHQVSFLFSDRGIPDGHRHMNGYGSHTFKLVNANGEAVYCKFHYKTDQGIKNLSVEDAARLAHEDPDYGLRDLFNAIATGNYPSWTLYIQVMTFSEAEIFPFNPFDLTKVWPHGDYPLIPVGKLVLNRNPVNYFAEVEQLAFDPSNMPPGIEPSPDKMLQGRLFAYPDTHRHRLGPNYLQIPVNCPYRARVANYQRDGPMCMMDNQGGAPNYYPNSFSAPEHQPSALEHRTHFSGDVQRFNSANDDNVTQVRTFYLKVLNEEQRKRLCENIAGHLKDAQLFIQKKAVKNFSDVHPEYGSRIQALLDKYNEEKPKNAVHTYVQHGSHLSAREKANL
For B1, which “catalytic activity after deposition and ultrasonic water bath” value ([2]; coated sample in ultrasonic water bath 10 min, then 5% hydrogen peroxide) is on record?
Its value is “produced bubbling of oxygen from the surface of the substrate”.

What about the “catalytic activity after molecular plasma deposition” value [2] of the same molecule?
The value was “producing bubbling of oxygen from the surface”.

What about the “catalytic activity after molecular plasma deposition” value ([2]; listed as Catalase) of the same molecule?
Its value is “without loss of catalytic activity”.

What about the “catalytic activity after deposition, ultrasonic water bath and storage” value ([2]; ultrasonic water bath 10 min, then 10° C. for 72 hr, then 5% hydrogen peroxide) of the same molecule?
The value was “produced bubbling of oxygen from the surface of the substrate”.

What about the activity of suspension [3] of the same molecule?
The activity of suspension was 4.1×10^4 U/ml.
